{"source": "paper PMC4778124", "about": "“A continuous sirtuin activity assay without any coupling to enzymatic or chemical reactions” (Scientific Reports, 2016)", "assay_type_in_all_cases": "biochemical, human", "key": {"[1]": {"test_system": "T1, CC(=O)N[C@@H](CCC(=O)O)C(=O)N[C@@H](C)C(=O)N[C@@H](CC(C)C)C(=O)N1CCC[C@H]1C(=O)N[C@@H](CCCCN)C(=O)N[C@@H](CCCCNC(=O)CCCCCCCCCCNC(=O)c1ccccc1N)C(=O)N[C@@H](Cc1ccc(O)c([N+](=O)[O-])c1)C(=O)NCC(=O)NCC(N)=O", "T1 construct": "His-tag; made in house; host or cells: E. coli BL21 DE3", "assay": "Continuous fluorescence assay, substrate kinetics", "conditions": "other: Sirt6 500 nM; fluorescence spectrophotometer (footnote a); 37.0 °C", "experimental": "The fluorescence measurements were performed on a Hitachi F-4500 fluorescence spectrophotometer (Tokyo, Japan) at λEx = 310 nm and λEm = 405 nm (slitEx = 5 nm, slitEm = 2.5 nm, PMT = 700 V for 3, 4 and 5 as well as slitEx = 10 nm, slitEm = 10 nm, PMT = 950 V for 4a). Each reaction mixture contained assay-buffer, 0.5 mM NAD^+ and various peptide concentrations (0.1–100 μM) and was preincubated for 5 minutes at 37 °C. The reaction was started by adding human sirtuin (0.1–0.5 μM) and observed for 5–10 minutes. Product formation could be monitored by increase of relative fluorescence. This signal was converted into product concentration via calibration lines. […] The reaction mixture was analyzed with HPLC, to control if the entire peptide substrate was turned to product. Additionally the mixture was diluted (0.1–25 μM) and measured with Hitachi F-4500 fluorescence spectrophotometer at the same conditions as described above.\nThe microtiter plate fluorescence measurements were performed on a Tecan Infinite M200 microplate reader (Maennedorf, Switzerland) at λEx = 320 nm and λEm = 408 nm (lag time 9 μs, integration time […], gain 160, 170 or 182). The reactions (total volume 100 μl) were measured in black low-binding 96-well microtiter plates (NUNC). […] The reaction mixture for the calibration lines was prepared as described for the single fluorescence measurements. […]"}, "[2]": {"test_system": "T1, CC(=O)N[C@@H](CCC(=O)O)C(=O)N[C@@H](C)C(=O)N[C@@H](CC(C)C)C(=O)N1CCC[C@H]1C(=O)N[C@@H](CCCCN)C(=O)N[C@@H](CCCCNC(=O)CCCCCCCCCCNC(=O)c1ccccc1N)C(=O)N[C@@H](Cc1ccc(O)c([N+](=O)[O-])c1)C(=O)NCC(=O)NCC(N)=O", "assay": "HPLC based activity assay", "conditions": "other: HPLC; Sirt6 0.5 µM; pH 7.8; 37.0 °C", "experimental": "(§1) For the determination of kinetic constants for all sirtuin mediated reactions solutions containing 20 mM TRIS/HCl pH 7.8, 150 mM NaCl, 5 mM MgCl2 (assay-buffer), 500 μM NAD^+ and varying substrate concentrations (0.5–100 μM) were used. Deacylation was started by adding human sirtuin to reach a final concentration of 0.01–0.5 μM. Enzyme-catalyzed reaction was stopped using TFA (1% final concentration) after 1 min to 180 min of incubation at 37 °C depending on substrate reactivity. The cleavage rate of the different TNFα peptide derivatives was analyzed using analytical reversed phase HPLC. 40 to 80 μl of compounds or reaction solutions were injected and separated using a linear gradient from 5% to 95% solvent B within 6min. The product and substrate peaks were quantified using absorbance at 220 nm or 365 nm (absorption of 3-Nitrotyrosyl moiety). The peak areas were integrated and converted to initial velocity rates calculated from the ratio of product area to total peak area. Linear regression of conversions plotted against time yielded reaction rates in μM/min (relative conversion below 20% of substrate). Non-linear regression according to Michaelis-Menten of the reaction rates at different substrate concentrations yielded KM- and kcat-values using the program SigmaPlot 8 (Systat Software, San Jose, USA). All measurements were done in duplicates. […]"}, "[3]": {"test_system": "T2, CCCCCCCCCCCCCC(=O)NCCCC[C@H](NC(=O)[C@H](CCCCN)NC(=O)[C@@H]1CCCN1C(=O)[C@H](CC(C)C)NC(=O)[C@H](C)NC(=O)[C@H](CCC(=O)O)NC(C)=O)C(=O)N[C@@H](Cc1ccc(O)c([N+](=O)[O-])c1)C(=O)NCC(=O)NCC(N)=O", "T2 construct": "His-tag; made in house; host or cells: E. coli BL21 DE3", "assay": "HPLC based activity assay", "conditions": "other: HPLC; Sirt6 0.5 µM; pH 7.8; 37.0 °C", "experimental": "as §1"}, "[4]": {"test_system": "T3, CCCCCCCCCCCCCC(=O)NCCCC[C@H](NC(=O)[C@H](CCCCN)NC(=O)[C@@H]1CCCN1C(=O)[C@H](CC(C)C)NC(=O)[C@H](C)NC(=O)[C@H](CCC(=O)O)NC(C)=O)C(=O)N[C@H](C(=O)NCC(=O)NCC(N)=O)[C@@H](C)O", "T3 construct": "His-tag; made in house; host or cells: E. coli BL21 DE3", "assay": "HPLC based activity assay", "conditions": "other: HPLC; Sirt6 0.5 µM; pH 7.8; 37.0 °C", "experimental": "as §1"}}, "note": "Values joined by “and” are separate entries in the source; they are usually repeats but may differ in a detail not shown here. Identical values can stand only once.", "data": [{"substance": "Sirt6 (Homo sapiens)", "values": [{"measurement": "Km", "setting": "[1]", "result": "23.5 ± 4.9", "unit": "µM"}, {"measurement": "kcat/Km", "setting": "[1]", "result": 39, "unit": "M⁻¹ s⁻¹"}, {"measurement": "Km", "setting": "[2]", "result": "18.3 ± 4.4", "unit": "µM"}, {"measurement": "kcat", "setting": "[2]", "result": "8.3∙10^-4 ± 0.7∙10^-4 s^-1"}, {"measurement": "kcat/Km", "setting": "[2]", "result": 45.00, "unit": "M⁻¹ s⁻¹"}, {"measurement": "Km", "setting": "[3]", "result": "17 µM and 17.3 ± 2.6 µM"}, {"measurement": "kcat", "setting": "[3]", "result": "4.9∙10^-3 ± 0.2∙10^-3 s^-1"}, {"measurement": "kcat/Km", "setting": "[3]", "result": "2.81∙10^2 M^-1s^-1"}, {"measurement": "Km", "setting": "[4]", "result": "6 µM and 5.7 ± 1.3 µM"}, {"measurement": "kcat", "setting": "[4]", "result": "4.7∙10^-3 ± 0.3∙10^-3 s^-1"}, {"measurement": "kcat/Km", "setting": "[4]", "result": "8.25∙10^2 M^-1s^-1"}]}]}
